One molecule from US20070292447A1 can be followed below.

This test deals with CS40 anti-ManLAM monoclonal antibody. As to the kind of experiment: competitive ELISA, ManLAM-coated plate, CS40 mixed with peptide; at 50 µg/ml peptide. For orientation: ELISA stands for enzyme-linked immunosorbent assay.

Take ISLTEWSMWYRH [B11 synthetic peptide (…)]: the decrease in OD (inhibition of CS40 binding to ManLAM) is 100%.
